The values that follow come from patent publication CN116836268A.

By Kd is commonly meant the equilibrium constant for the complex coming apart.

The assay addresses Cov-S-His (SARS-CoV-2). The assay can be described thus: SPR, Biacore T200, antibody captured by anti-mouse Fc, Cov-S-His as analyte. Background: SPR reads the build-up and loss of mass on a sensor chip optically.

B1: S4B3VH-h2+L1C9VK-mIgG2a (antibody, V domains shown)
VH: QVQLVQSGAEVKKPGSSVKVSCKASGYIFNSYSIHWVRQAPGQGLEWIGAIYPGNGDTSNSQRFKGKATITADKSASTAYMELSSLRSEDTAVYYCARDGYDDSYGLDYWGQGTTVTVSS
VL: DIQLTQSPSTLSASVGDRVTITCRASQNIGGWLAWYQQKPGKAPNLLIYQASTLESGVPSRFSGSGSGTEFTLTISSLQAEDFATYHCQQYSGFPWTFGQGTKVEIKR
Molecule B1 displayed a Kd of 5.76 nM.

B2: S4B3VH-h1+L1C9VK-mIgG2a (antibody, V domains shown)
VH: QVQLVQSGAEVKKPGSSVKVSCKASGYIFNSYSIHWVRQAPGQGLEWIGAIYPGNGDTSNSQRFKGRVTITADKSTSTAYMELSSLRSEDTAVYYCARDGYDDSYGLDYWGQGTTVTVSS
VL: DIQLTQSPSTLSASVGDRVTITCRASQNIGGWLAWYQQKPGKAPNLLIYQASTLESGVPSRFSGSGSGTEFTLTISSLQAEDFATYHCQQYSGFPWTFGQGTKVEIKR
As to B2, the Kd came out at 5 nM.

B3: S4B3VH-h2+S4B3VK-h1-mIgG2a (antibody, V domains shown)
VH: QVQLVQSGAEVKKPGSSVKVSCKASGYIFNSYSIHWVRQAPGQGLEWIGAIYPGNGDTSNSQRFKGKATITADKSASTAYMELSSLRSEDTAVYYCARDGYDDSYGLDYWGQGTTVTVSS
VL: DIVMTQSPDSLAVSLGERATINCKASQNVGTNVAWYQQKPGQPPKALIYSASYRYSGVPDRFSGSGSGTDFTLTISSLQAEDVAVYFCQQYNSYPLTFGQGTKLEIKR
Take B3: the Kd came out at 23.9 nM.

B4: S4B3VH-h1+L1B2VK-mIgG2a (antibody, V domains shown)
VH: QVQLVQSGAEVKKPGSSVKVSCKASGYIFNSYSIHWVRQAPGQGLEWIGAIYPGNGDTSNSQRFKGRVTITADKSTSTAYMELSSLRSEDTAVYYCARDGYDDSYGLDYWGQGTTVTVSS
VL: DIQMTQSPSSLSASVGDRVTITCRASQNIHNYLDWYQQKPGKAPKLLIYSASSRETGVPSSFSGSGSGTDFTLTISSLQPEDFATYYCQQFQQIPWTFGQGTKVEIKR
With B4, the Kd amounted to 2.86 nM.

B5: S4B3VH-h1+S4B3VK-h1-mIgG2a (antibody, V domains shown)
VH: QVQLVQSGAEVKKPGSSVKVSCKASGYIFNSYSIHWVRQAPGQGLEWIGAIYPGNGDTSNSQRFKGRVTITADKSTSTAYMELSSLRSEDTAVYYCARDGYDDSYGLDYWGQGTTVTVSS
VL: DIVMTQSPDSLAVSLGERATINCKASQNVGTNVAWYQQKPGQPPKALIYSASYRYSGVPDRFSGSGSGTDFTLTISSLQAEDVAVYFCQQYNSYPLTFGQGTKLEIKR
B5: the Kd was determined as 14.5 nM.

B6: S4B3VH-h2+L1B2VK-mIgG2a (antibody, V domains shown)
VH: QVQLVQSGAEVKKPGSSVKVSCKASGYIFNSYSIHWVRQAPGQGLEWIGAIYPGNGDTSNSQRFKGKATITADKSASTAYMELSSLRSEDTAVYYCARDGYDDSYGLDYWGQGTTVTVSS
VL: DIQMTQSPSSLSASVGDRVTITCRASQNIHNYLDWYQQKPGKAPKLLIYSASSRETGVPSSFSGSGSGTDFTLTISSLQPEDFATYYCQQFQQIPWTFGQGTKVEIKR
Consider B6, for which the dissociation constant (Kd) is 3.04 nM.
